The record followed here is article PMC12630831 (Nature Communications, 2025).

This data set deals with the molecule itself. Kind of data set: SDS-PAGE under DTT-free conditions with western blot.

B1: FLAG-tagged PRDX1 C83A expressed in HEK293 cells (natural protein, UniProt Q06830 1-199, looked up)
chain: MSSGNAKIGHPAPNFKATAVMPDGQFKDISLSDYKGKYVVFFFYPLDFTFVCPTEIIAFSDRAEEFKKLNCQVIGASVDSHFAHLAWVNTPKKQGGLGPMNIPLVSDPKRTIAQDYGVLKADEGISFRGLFIIDDKGILRQITVNDLPVGRSVDETLRLVQAFQFTDKHGEVCPAGWKPGSDTIKPDVQKSKEYFSKQK
In the case of B1, the “stoichiometry N” value was found to be 2.

B2: FLAG-tagged WT PRDX1 expressed in HEK293 cells (natural protein, UniProt Q06830 1-199, looked up)
chain: MSSGNAKIGHPAPNFKATAVMPDGQFKDISLSDYKGKYVVFFFYPLDFTFVCPTEIIAFSDRAEEFKKLNCQVIGASVDSHFCHLAWVNTPKKQGGLGPMNIPLVSDPKRTIAQDYGVLKADEGISFRGLFIIDDKGILRQITVNDLPVGRSVDETLRLVQAFQFTDKHGEVCPAGWKPGSDTIKPDVQKSKEYFSKQK
Take B2: the “stoichiometry N” value turned out to be 2.
